Test results as given in US20210206842A1 (NATIONAL RESEARCH COUNCIL OF CANADA, published 2021).

Key:
VHH FC5 [1] = biological target: T1, VHH FC5; experiment: ELISA, hybridoma supernatant on coated purified FC5-VHH
T1 construct: put together from its FR and CDR entries; also called FC5-VHH; FC5 control
Method: (§1) Screening. Hybridoma supernatants were screened by ELISA to detect specific binders. To this end, 96-well half-area plates (Costar #3690) were coated with 25 μl of FC5DIE3IR or FC5-VHH or FC5-hFc-1X0 at 5 μg/ml in PBS and incubated overnight at 4° C. Microplates were washed 3 times with PBS, blocked with PBS-BSA 1%, and 25 μl of hybridoma supernatants were added and incubated at 37° C., 5% CO₂ for 2 hours. […] After 4 washes with PBS-Tween 20 0.05%, 25 μl of a 1 mg/ml pNPP substrate solution was added and further incubated for one hour at 37° C.

peptide #2a (20 aa) = biological target: T2, peptide #2a (20 aa) (human); experiment: ELISA on coated P2a, mAb at the dilutions 1:1000, 1:5000 and 1:10000, Abs 450nm
T2 construct: Custom-synthesized (Biomatik); also called pep #2a; P2a
T2 peptide: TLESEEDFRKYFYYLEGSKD
Method: (§2) The peptides were custom-synthesized (Biomatik) and tested for antibody binding by ELISA. […] The wells were blocked with 1% BSA in TBS-T for 30 min and then incubated with 1:1000 dilution of anti-hNaᵥ1.7 mAb at room temperature (RT) for one hr.

VHH FC5 [2] = biological target: T1, VHH FC5; experiment: SPR (Biacore T200), ligand 3A8 captured by anti-mouse IgG, VHH FC5 flowed at 1 µM, 25 °C, 1:1 binding model; the label reads KD: without a unit, M follows from kd/ka; the fit is printed under a flat sensorgram and the filing says that 3A8 did not bind FC5
Method: (§3) HBS-EP running buffer used for SPR experiments. […] Test binding experiments of FC5 control and FC5DIE3IR involved flowing 1 μM concentrations of SEC-pure material over the mAb surface at a flow rate of 30 μl/min for 5 min. Surfaces could be regenerated using 10 mM glycine, pH 1.7, with a 120 sec pulse at 20 μl/min. All SPR experiments were evaluated with Biacore T200 Software v 3.0. […] Regeneration conditions were the same as above. Data were fit to a 1:1 binding model and analyzed using the Biacore T200 Software v3.0.

[3] = biological target: T3, FC5DIE3IR recombinant protein; experiment: apparent KD (Kdapp), ELISA dose curve of purified mAb on coated FC5DIE3IR; 3A8 clone (IgG2a), ELISA apparent KD
T3 construct: Made in CHO-3E7 cells; also called FC5DIE31R; FC5DIE3R
Method: as §1
(§4) Evaluation of apparent affinity in ELISA. Purified antibodies were assessed for their binding activity by ELISA in a dose-dependent binding curve. Serial 1/3 dilutions of purified mAbs starting at 120 nM were applied onto wells and ELISA was performed as described above (screening section). The data were analyzed with GraphPad Prism software using one-site specific binding-with Hill slope non-linear regression curve fit model to determine Bₘₐₓ (maximum specific binding) and Kdₐₚₚ (concentration needed to achieve a half-maximum binding at equilibrium) for each mAb tested.

human Nav1.7 polypeptide [4] = biological target: T4, human Nav1.7 polypeptide (human, UniProt Q15858 1-1988); experiment: cell-based or functional assay
human Nav1.7 polypeptide [5] = biological target: T4, human Nav1.7 polypeptide; experiment: cell ELISA, hybridoma supernatant on live CHO cells expressing human Nav1.7, duplicate 2
Method: (§5) Cell-ELISA. Sterile 96-well plates (Costar #3595) were pre-treated with 50 μl/well of branched polyethyleneimine (PEI, Sigma Cat #408727) at 25 μg/ml in PBS for 30 min at room temperature. PEI was removed and CHO-3E7 or hNAᵥ1.7-CHO (ChanTest cat #CT4003) were seeded at 6×10⁵ cells per well in FreeStyle F17 Expression Medium (Gibco Cat #A1383501) and incubated overnight at 37° C., 5% CO₂. Microplates were blocked with Starting block (Thermofisher Cat #37538) for 30 min at room temperature, and 50 μl of hybridoma supernatants were added and incubated at 4° C. for 3 h. […] After 10 washes with PBS, 50 μl of TMB substrate solution (Pierce Cat #34021) was added and further incubated for 60 min at room temperature.

VHH FC5 [6] = biological target: T1, VHH FC5; experiment: SPR (Biacore T200), ligand 3A8 captured by anti-mouse IgG, VHH FC5 flowed at 1 µM, 25 °C, 1:1 binding model; the fit is printed under a flat sensorgram and the filing says that 3A8 did not bind FC5
Method: as §3

[7] = biological target: T3, FC5DIE3IR recombinant protein; experiment: ELISA, hybridoma supernatant on coated purified FC5DIE3IR
Method: as §1

[8] = biological target: T3, FC5DIE3IR recombinant protein; experiment: ELISA on coated FC5DIE3IR, serial dilutions of purified mAb; fit One site - Specific binding with Hill slope
Method: as §1, §4

[9] = biological target: T3, FC5DIE3IR recombinant protein; experiment: ELISA on coated FC5DIE3IR, serial dilutions of purified mAb, OD 405 nm; fit One site - Specific binding with Hill slope; apparent Kd in the unit of the concentration axis (nM), the table itself prints no unit
Method: as §1, §4

human Nav1.7 polypeptide [10] = biological target: T4, human Nav1.7 polypeptide; experiment: cell-based or functional assay; remark: listed apart in the source
[11] = biological target: T3, FC5DIE3IR recombinant protein; experiment: SPR single cycle kinetics, ligand 3A8 Fc-captured, FC5DIE3IR flowed in five rising concentrations, 1:1 binding model
Method: as §3

peptide #2 (30 aa) = biological target: T5, peptide #2 (30 aa) (human); experiment: ELISA on coated peptide or FC5DIE3IR, mAb detected with HRP anti-mouse Fc, Abs 450nm
T5 construct: Custom-synthesized (Biomatik); also called pep #2; P2
T5 peptide: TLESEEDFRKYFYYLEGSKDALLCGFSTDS
Method: as §2

peptide #40a (40 aa) = biological target: T6, peptide #40a (40 aa) (human); experiment: as above
T6 construct: Custom-synthesized (Biomatik); also called pep #40a; P40a
T6 peptide: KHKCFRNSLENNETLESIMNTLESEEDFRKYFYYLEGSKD
Method: as §2

peptide #3 (30 aa) = biological target: T7, peptide #3 (30 aa) (human); experiment: as above
T7 construct: Custom-synthesized (Biomatik); also called pep #3; P3
Method: as §2

[12] = biological target: T3, FC5DIE3IR recombinant protein; experiment: ELISA dose curve of purified mAb on coated FC5DIE3IR
Method: as §1, §4

human Nav1.7 polypeptide [13] = biological target: T4, human Nav1.7 polypeptide; experiment: cell ELISA, hybridoma supernatant on live CHO cells expressing human Nav1.7, duplicate 1
Method: as §5

[14] = biological target: T3, FC5DIE3IR recombinant protein; experiment: SPR (Biacore T200), ligand 3A8 captured by anti-mouse IgG, FC5DIE3IR flowed at 1 µM, 25 °C, 1:1 binding model
Method: as §3

[15] = biological target: T3, FC5DIE3IR recombinant protein; experiment: SPR (Biacore T200), single cycle kinetics, Fc-captured mAb, FC5DIE3IR flowed (320 nM-20 nM), 1:1 model, 25 C
Method: as §3

[16] = biological target: T3, FC5DIE3IR recombinant protein; experiment: SPR steady-state plot (Req against Conc up to 5e-6), VHH DI-D over immobilized FC5DIE3IR
[17] = biological target: T3, FC5DIE3IR recombinant protein; experiment: SPR, multiple cycle kinetics, VHH over immobilized FC5DIE3IR
[18] = biological target: T3, FC5DIE3IR recombinant protein; experiment: SPR (Biacore T200), VHH flowed over immobilized FC5DIE3IR, steady state fit, 25 C
Excerpt: Surface Plasmon Resonance for VHH antibodies. […] Monomeric VHH fractions were collected and protein concentration determined by measuring A280 measurement. Using a Biacore T200 instrument (GE Healthcare), approximately 500-1000 RUs of FC5DIE3IR, FC5 and an irrelevant VHH (2A3-H4) were immobilized on a CM5 Series S sensor chip (GE Healthcare) at pH 4.0 using standard amine coupling according to the manufacturer's instructions (GE Healthcare). […] Surfaces were regenerated by washing with a 120 s pulse of 10 mM glycine pH 1.5. Data were analyzed with Biacore T200 Software v 3.0 and affinities determined using steady state binding or a 1:1 binding model.
Surface Plasmon Resonance (SPR).

T1 sequence (VHH, as listed by the source): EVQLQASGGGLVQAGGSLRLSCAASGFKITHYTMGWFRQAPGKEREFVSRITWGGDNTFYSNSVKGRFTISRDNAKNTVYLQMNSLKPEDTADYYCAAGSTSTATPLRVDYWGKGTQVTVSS
T7 sequence (peptide, as listed by the source): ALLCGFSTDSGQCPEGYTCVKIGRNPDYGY

B1: anti-hNav1.7 mAb 3A8 (antibody, V domains shown)
VH: QVQLQQPGAELVKPGASVKLSCKASGYTFTNYWMHWVKQRPGQGLEWIGEINPSNGRANYNEKFKSKATLTVDKSSSTAYMQLSSLTSEDSAVYYCARSPYGYYDYWGQGTTLTVSS
VL: DVLMTQTPLSLPVSLGDQASISCRSSQSLLHSNGNTYFHWYLQKPGQSPKLLIYKVSNRFFGVPDRFSGSGSGTDFTLKISRVEAEDLGVYFCSQITHVPLTFGAGTKLELK
notes: also called F233-3A8
For B1, which “ELISA signal (OD 405 nm)” value (VHH FC5 [1]) is on record?
The value was 0.029 OD 405 nm.

Does B1 bind (peptide #2a (20 aa))?
Result: binds

And the Kd (VHH FC5 [2])?
Its Kd is 482 nM.

What about the Kd [3] of the same binder?
The Kd was 1.9 nM.

And the “Concentration response relationship (IC50), hNav1.7 currents, whole-cell patch clamp, hNav1.7-HEK293 cells, resting/closed state” value (human Nav1.7 polypeptide [4])?
Its value is 850 nM.

And the “Efficacy (degree of maximum inhibition) %” value (human Nav1.7 polypeptide [4])?
Its value is 16%.

And the “Reduction currents (%) at 0.5 µM” value (human Nav1.7 polypeptide [4])?
The value was 3.6%.

And the “Reduction currents (%) at 1 µM” value (human Nav1.7 polypeptide [4])?
Its value is 8.2%.

What about the “Reduction currents (%) at 2 µM” value (human Nav1.7 polypeptide [4]) of the same binder?
Its value is 16%.

And the “Reduction currents (%) at 3 µM” value (human Nav1.7 polypeptide [4])?
Its value is 15.4%.

What about the “Time constant of the block of the hNav1.7 currents (1 µM)” value (human Nav1.7 polypeptide [4]) of the same binder?
The value was 184 s.

What about the “Time constant of the block of the hNav1.7 currents (2 µM)” value (human Nav1.7 polypeptide [4]) of the same binder?
The value was 105 s.

And the “cell ELISA signal (OD 450 nm)” value (human Nav1.7 polypeptide [5])?
The value was 0.183 OD 450 nm.

What about the koff (VHH FC5 [6]) of the same binder?
Its koff is 0.0138 s⁻¹.

What about the kon (VHH FC5 [6]) of the same binder?
The kon was 28700 M⁻¹ s⁻¹.

And the “ELISA signal (OD 405 nm)” value [7]?
Its value is 0.995 OD 405 nm.

What about the Bmax [8] of the same binder?
Its Bmax is 2.15 OD405 nm.

And the Kd [9]?
Its Kd is 1.84 nM.

What about the “concentration response relationship (IC50), hNav1.7 currents, whole-cell patch clamp, hNav1.7-HEK293 cells” value (human Nav1.7 polypeptide [10]) of the same binder?
Its value is 900 nM.

What about the Kd [11] of the same binder?
The Kd was 7.59 nM.

And the koff [11]?
The koff was 3.15e-05 s⁻¹.

What about the kon [11] of the same binder?
The kon was 4160 M⁻¹ s⁻¹.

Does B1 bind (peptide #2 (30 aa))?
Result: binds

Does B1 bind (peptide #40a (40 aa))?
Result: binds

Does B1 bind (peptide #3 (30 aa))?
Result: no binding

What about the “fold lower apparent KD than the 1G5 clone” value [12] of the same binder?
Its value is about 2.5 fold.

And the “cell ELISA signal (OD 450 nm)” value (human Nav1.7 polypeptide [13])?
The value was 0.102 OD 450 nm.

What about the Kd [14] of the same binder?
Its Kd is 17.1 nM.

What about the koff [14] of the same binder?
The koff was 4.52e-05 s⁻¹.

And the kon [14]?
The kon was 2640 M⁻¹ s⁻¹.

And the Kd [15]?
Its Kd is 36.7 nM.

What about the koff [15] of the same binder?
Its koff is 0.000259 s⁻¹.

And the kon [15]?
Its kon is 7050 M⁻¹ s⁻¹.

B2: VHH DI-D (VHH)
VHH: QVKLEESGGGLVQPGGSLKLSCVASGFAFSSAPMDWVRKAPGKDVEWLSTIESDQDHTIYYANSVKGRFTISRDDVQNILYLQMNDLKIEDTATYYCQKRGEKKTRGQGTQVTVSS
notes: From the naive LAC-M library; soluble tagged monomer in protein ELISA, SPR and patch clamp; also called phage D; clone D; not shown: 6xHis and c-Myc tags on the soluble monomer
For B2, which Kd [16] is on record?
The Kd was 2040 nM.

And the Kd [17]?
Its Kd is 2000 nM.

What about the Kd [18] of the same binder?
The Kd was 1930 nM.

What about the “concentration response relationship (IC50), hNav1.7 currents” value (human Nav1.7 polypeptide [10]) of the same binder?
Its value is 1480 nM.
